First the molecules themselves.
B1: human lysozyme (enzyme)
chain: KVFERCELARTLKRLGMDGYRGISLANWMCLAKWESGYNTRATNYNAGDRSTDYGIFQINSRYWCNDGKTPGAVNACHLSCSALLQDNIADAVACAKRVVRDPQGIRAWVAWRNRCQNRDVRQYVQGCGV
B2: natural human lactoferrin (ligand)
chain: GRRRRSVQWCAVSQPEATKCFQWQRNMRKVRGPPVSCIKRDSPIQCIQAIAENRADAVTLDGGFIYEAGLAPYKLRPVAAEVYGTERQPRTHYYAVAVVKKGGSFQLNELQGLKSCHTGLRRTAGWNVPIGTLRPFLNWTGPPEPIEAAVARFFSASCVPGADKGQFPNLCRLCAGTGENKCAFSSQEPYFSYSGAFKCLRDGAGDVAFIRESTVFEDLSDEAERDEYELLCPDNTRKPVDKFKDCHLARVPSHAVVARSVNGKEDAIWNLLRQAQEKFGKDKSPKFQLFGSPSGQKDLLFKDSAIGFSRVPPRIDSGLYLGSGYFTAIQNLRKSEEEVAARRARVVWCAVGEQELRKCNQWSGLSEGSVTCSSASTTEDCIALVLKGEADAMSLDGGYVYTAGKCGLVPVLAENYKSQQSSDPDPNCVDRPVEGYLAVAVVRRSDTSLTWNSVKGKKSCHTAVDRTAGWNIPMGLLFNQTGSCKFDEYFSQSCAPGSDPRSNLCALCIGDEQGENKCVPNSNERYYGYTGAFRCLAENAGDVAFVKDVTVLQNTDGNNNEAWAKDLKLADFALLCLDGKRKPVTEARSCHLAMAPNHAVVSRMDKVERLKQVLLHQQAKFGRNGSDCPDKFCLFQSETKNLLFNDNTECLARLHGKTTYEKYLGPQYVAGITNLKKCSTSPLLEACEFLRK
B3: iron-saturated human lactoferrin (ligand)
chain: B2 chain

The target of assay [1] is B2. Put plainly: solid-phase ligand binding ELISA, hLZ-coated plates. (In general: In an ELISA, binding on a coated surface is turned into a signal by an enzyme label.)
The target of a further assay is human transferrin (human, UniProt P02787). As to the kind of experiment: competitive ELISA: hTF as competitor of 12.5 nM biotinylated hLF on hLZ-coated plates.
The target of the assay “human lysozyme” is B1. As to the kind of experiment: competitive ELISA: unlabelled competitor against 12.5 nM biotinylated hLF on hLZ-coated plates.

The results in this text go back to patent publication US6333311, “Useful properties of human lactoferrin and variants thereof” (Pharming, dated 2001).

A word on the IC50: it is the concentration that gives 50% inhibition. A lower IC50 goes with higher potency.

B1: the binding result in assay [1] is given as “binds”; with human transferrin, “no binding”.

Molecule B2 returned an IC50 with human lysozyme of 0.0112 µM.

Turning to B3, the 50% inhibitory concentration (IC50) with human lysozyme is 0.0154 µM.
